{"source": "the DeepSol protein solubility set"}
{"assay": "soluble on expression in E. coli; label from the status in PepcDB or PDB records"}
{"sequence": "MIDMALTDDIILLGQVPLFAGFSDDQLRLIAFGAERRRVSAGQILFREHSPAECAFAVTSGHFELFTAGRDGKPLLQATPGKGALLSELALFTLCERKFTAVAVEDSEVIRITRILFHRLVEEFPEVADIVSARIRDNIAALAAGAARLQNRFV", "soluble on expression in E. coli": "not soluble"}
{"sequence": "SDIEHILTAIAVLLEKRLDYDRGVIMMADAGGSALRVLASYGFDEAGRRVMHETPIALDGVGPRGVVAASFLDQKPFLVNDLDEINHLIPPLHRELGRRLGIRSFISCPIVCEGQSLGVLAVDTIRTG", "soluble on expression in E. coli": "not soluble"}
{"sequence": "MGGSHHHHHHGMASALATRQRESSITSCCSTSSCDADDEGVRGTCEDASLCKRFAVSIGYWHDPYIQHFVRLSKERKAPEINRGYFARVHGVSQLIKAFLRKTECHCQIVNLGAGMDTTFWRLKDEDLLPSKYFEVDFPMIVTRKLHSIKCKPPLSSPILELHSEDTLQMDGHILDSKRYAVIGADLRDLSELEEKLKKCNMNTQLPTLLIAECVLVYMTPEQSANLLKWAANSFERAMFINYEQVNMGDRFGQIMIENLRRRQCDLAGVETCKSLESQKERLLSNGWETASAVDMMELYNRLPRAEVSRIESLEFLDEMELLEQLMRHYCLCWATKGGNELGLKEITY", "soluble on expression in E. coli": "not soluble"}
{"sequence": "SATAQLSHCITIHKASKETVFPSQITNEHESLKMVKKLFATSISCITYLRGLFPESSYGERHLDDLSLKILREDKKCPGSLHIIRWIQGCFDALEKRYLRMAVLTLYTDPMGSEKVTEMYQFKFKYTKEGATMDFDSHSSSTSFESGTNNEDIKKASVLLIRKLYILMQDLEPLPNNVVLTMKLHYYNAVTPHDYQPLGFKEGVNSHFLLFDKEPINVQVGFVSTGFHSMKVKVMTEATKVIDLENNLFRENSTTEIAHQGLDCDEEEECNDHIQRMNFVCSQQSSECSRKKRKVSEPVKVFIPNRK", "soluble on expression in E. coli": "soluble"}
{"sequence": "MGSDKIHHHHHHMKSVCLKITSLISLASRITTGLSLMSVMLASPLAVAQMGKHDALLLHAARVFDGHRMRTNTSVQVVNGKVTQIGPRGSFAPDNAKVIDLGDATILPGFIELHAHLSFQHVPADTVLKHGITTIRDVGGPVHKPYGGNGTLRMLTSGPIITAPGGYPIPLTGEKNIATPVSTEKEARETVRNLIDAGAVVIKIALEPGGEPGAPWSCGHAHVHHHNHAAAGNHAHHAQPNHEPPNHEAANDAHSSHPHPNTGLGTAWPLLAERVVKAIVDEAHVNKRRVTAHIAEVKGAEIAINAGIDEWAHVPCDIIPEPLLKKAVSQGVRIVTTLDTLSKCPGVAHNTRVWREQGGELLYGAEIAHPDVPRGIDAQELMYMMQMGNMETLEVLRAATSKAGEHLGLPLLGTLLPGAPADVIAIKGDPTHNLKNLEYPDLVISGGEIVLNNFPAAF", "soluble on expression in E. coli": "not soluble"}
{"sequence": "GHMSRRSFKNRVLAFFKGYPSFYYPATLVAPVHSAVTSSIMYKVQFDDATMSTVNSNQIKRFFLKKGDVVQSTRLGKIKHTVVKTFRSTNEQLSLIAVDALNNDMVILAHGEIEVTVPISTIYVAPVNIRRFQGRDLSFSTLKDMKFEETSFL", "soluble on expression in E. coli": "soluble"}
{"sequence": "MGSDKIHHHHHHMGKLVLAAKVSHVPSLMLSETSDSPLRQARAGAVAALRELGRRAKEREVTTFVVFDTHWLSNFGYHINANAQHRGSFTSHEAPHMIQDLRYDLPGDPALAQAIAAEAQSHGLKVLAHQVPTLGLEYGTIVPMHYLNSDGWAKIVSIASPLFTSIEESRALGEATRRAIDASDERVAILASGSLSHRLWPNKDLGPDAWTTIASEFNRQVDLRVLQLWQERRYREFTAMLPDYAVKCNGEGGMADTVMLFAALGWDDYTGEAEPLCDYFPSSGSGQVNVEFHVS", "soluble on expression in E. coli": "not soluble"}
{"sequence": "MGSDKIHHHHHHMDIIVVGGGTSGLLSALALEKEGHNVIVFEKESYVGGLCRSEKIDGYSVDIGVHAITMLDNGPLIRLLNKYSRYLPNFRNYGDYYIRTDKLHRIPVSMHEWMTTPVIPNKDKVLITSKIMDLMTMGFTKDASVYDFVKEMGLSSTSVDFFNTIAYFLSGEDLENTPLWRFFTGAGYIPEDDILPFIYKDMKINPLKSTLVKKFGTERIINILNDGFISSIKNGSKKYINKFMTEHRYSTQGYPVGGVQSICNCITYSLRNTQIKNEEVKKITKNGKKYTVKTSEGEYTSDIIVYSAPAITLPKVAKINKIQKNKEKLSNIKFTKSTTVWIGDEKNYFPYLGSEIWIDNPCWASTVSNYDESLAPKGKHLMGFSFVNSKKEDALKTIESKLNLNTDKVDMLYVQETVPEQASCSIGQFFVYPKIDDTFFVVGTDSDPRSMGITRAAYSVEVMLSEFKNIYDTQKETAKK", "soluble on expression in E. coli": "not soluble"}
{"sequence": "MSLKGVSYTSEQKTRIVLEMLKEEETLAQIASRYQVTSQTLNSWKRQFLANASLAFEPAKALQEYKDQIQSKEQEIEELQKQLGKSVAEKEWLAKKLEGLDLSNKKALVESKPETISIARQCELLGISRSAYYYKPISLSRANLQIMHAIGEIATDNAEYGYRFIHQQLLEDGYRIGKERVLKYMRVMNLRALYPKKRKHTSIHNLEYKRYPYLLSQYHNSKKQVVVDRPGEVWSGDITYIRMNGGFMYLCAIIDWHSKAILAYKISNTMDASLAVDTLKEALQTHPAPRIFNSDQGSQYTSEEHTRLLEEHQIAISMNGKGRSIDNIAIERFFRTLKHSSIYINDYRTIKELKEGIKNYIHKYNFKRFHSSIEYRKPMNVYLEAQTVAEGHHHHHH", "soluble on expression in E. coli": "not soluble"}
{"sequence": "MGSDKIHHHHHHMKPRACVVVYPGSNCDRDAYHALEINGFEPSYVGLDDKLDDYELIILPGGFSYGDYLRPGAVAAREKIAFEIAKAAERGKLIMGICNGFQILIEMGLLKGALLQNSSGKFICKWVDLIVENNDTPFTNAFEKGEKIRIPIAHGFGRYVKIDDVNVVLRYVKDVNGSDERIAGVLNESGNVFGLMPHPERAVEELIGGEDGKKVFQSILNYLKR", "soluble on expression in E. coli": "not soluble"}
{"sequence": "MADDAGILYENSLDLLKSMKNFAGNVGEGEKKHPYGKAANAARAYGSGMKNSAASFNHSGEQFDKLFEACNTFKDQINGNVLAKLISFKDVECKDVDTQMTQLKKAQKDYANKKSKIVPDQVQVDAAEATLKKLLEEAKATLEKFNKTGCELLTQISADMKTGFDAYCDAAASIN", "soluble on expression in E. coli": "not soluble"}
{"sequence": "MESKQPEDIHQDCELKQDELISKLQHSQQNFDNIKKILANFEKENENLADENEILKTRIASLEKDVKQEKNATKMAKSLNEETINELTLSEDLIESLKKQFQASKIELKEEILSKNKVEKDYSNDKRYFLEREQYLLITMESMESGKLEHEQQTEIMNKDVEELKIRVKELEATDLSEKNIELERQVGKLTAQLQDFESSRGYEQELILSQLEVQKRKLDKQLIDLQSKLERNPELVEFDKLHEELQTERMNMPVQVCYVHVSFIHKDIENLIYRKMNNNK", "soluble on expression in E. coli": "not soluble"}
{"sequence": "MSLAPINPYPLLQACQRQRVSDGAIAPVLAGTESSDRLLVLIWPQLGDFDSLEYAQWLQREQDQIQQLGLTIRAVGIGDRDSGQRFCEFTGFPADQLFVDPTASLHQELELYPGLQLSIPGFSPAAKAWLNLLLMCAGIGSPGTLAEVLRGYRGDRSAPQLIAAEETVQAAPLPPIKGNFFNLAGGSGFQRPMELATLRLRNMAESLGHWRTYVPDTSYMTQRGGTFLFDRDRQLIYEHRDHGILGFSATMNRPLSFLDNLPTPSTASEGHHHHHH", "soluble on expression in E. coli": "soluble"}
{"sequence": "MVQEIEQWLRRHQVFTEPAYLGETAILLGQQFILSPYLVIYRIEAKEMIICEFRRLTPGQPRPQQLFHLLGLLRGIFVHHPQLTCLKMLIITDVLDEKKAMLRRKLLRILTVMGATFTQLDGDNWTVLSAEHLIQRRF", "soluble on expression in E. coli": "not soluble"}
{"sequence": "MITVSIAGGSQPEILQLVKKALKEAEQPLQFIVFDTNENLDTENLWKYVHCSDEAAVAQEAVSLVATGQAQILLKGIIQTHTLLKEMLKSEHQLKNKPILSHVAMVELPAGKTFLLTDCAMNIAPTQATLIEIVENAKEVAQKLGLHHPKIALLSAAENFNPKMPSSVLAKEVTAHFNDQQEATVFGPLSLDLATSEEAVAHKRYSGPIMGDADILVVPTIDVGNCLYKSLTLFGHAKVGGTIVGTKVPVVLTSRSDSTESKFHSLRFAMRQVHHHHHH", "soluble on expression in E. coli": "soluble"}
{"sequence": "MYSVLIPVDRDEARASNQASYVSQLPDATDTVEATVLYVVPPDEFADAAEVAFDDIDAAVQAANQLEAAGVSVTRMVDDGGVAQQIVRTATELDSDEIVVGGRKRSGVSKVLLGSTAQDVLLSAERPVTITGESVVL", "soluble on expression in E. coli": "not soluble"}
